Test results: US20230203100A1, “COMPOSITIONS INCLUDING MULTI-AGONIST PEPTIDES AND METHODS OF MANUFACTURE AND USE” (Pep2Tango Therapeutics Inc., priority 2021, published 2023)
Read-outs that look alike come from different tables or passages of the source. Starred links: 1 amine or outer side, 2 acyl side, 3 side chain; linkers in the order of their positions; H or OH if unused. Non-standard residues stand in square brackets, D forms with d. Groups on a side chain read outwards from the residue. γGlu = O=C(O)[C@H](CCC(=O)[*:2])N[*:1]; C(:O)(CH2)nR3 = not defined here; Aib = CC(C)(N)C(=O)O

T1: Human GIP receptor (human, UniProt P48546)
T1 sequence: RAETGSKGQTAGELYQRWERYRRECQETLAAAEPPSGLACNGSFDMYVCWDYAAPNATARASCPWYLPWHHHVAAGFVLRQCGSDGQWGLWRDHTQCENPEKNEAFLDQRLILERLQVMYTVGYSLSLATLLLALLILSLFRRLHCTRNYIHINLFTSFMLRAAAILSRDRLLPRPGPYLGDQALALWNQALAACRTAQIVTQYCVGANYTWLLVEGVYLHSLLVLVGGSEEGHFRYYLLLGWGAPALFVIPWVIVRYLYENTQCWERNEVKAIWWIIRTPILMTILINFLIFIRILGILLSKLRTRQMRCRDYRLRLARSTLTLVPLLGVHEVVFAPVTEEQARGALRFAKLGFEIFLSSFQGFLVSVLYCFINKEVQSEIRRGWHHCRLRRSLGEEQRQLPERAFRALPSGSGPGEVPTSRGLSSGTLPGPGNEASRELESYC

T2: Human AMY3 receptor (CT/RAMP3) (human, UniProt P30988)
T2 sequence 1: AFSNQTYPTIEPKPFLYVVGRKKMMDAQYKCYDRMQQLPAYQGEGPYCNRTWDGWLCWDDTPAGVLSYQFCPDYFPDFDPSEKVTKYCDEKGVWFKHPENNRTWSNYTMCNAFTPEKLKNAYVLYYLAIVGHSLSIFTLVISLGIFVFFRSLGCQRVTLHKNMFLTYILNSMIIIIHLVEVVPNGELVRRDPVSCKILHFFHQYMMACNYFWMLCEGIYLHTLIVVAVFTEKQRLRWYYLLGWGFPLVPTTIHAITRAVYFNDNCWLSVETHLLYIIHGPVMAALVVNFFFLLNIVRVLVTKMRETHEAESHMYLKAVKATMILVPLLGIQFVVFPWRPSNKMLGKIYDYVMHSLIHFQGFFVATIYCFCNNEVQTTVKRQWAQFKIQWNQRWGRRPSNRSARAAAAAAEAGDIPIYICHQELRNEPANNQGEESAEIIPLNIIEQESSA
T2 sequence 2: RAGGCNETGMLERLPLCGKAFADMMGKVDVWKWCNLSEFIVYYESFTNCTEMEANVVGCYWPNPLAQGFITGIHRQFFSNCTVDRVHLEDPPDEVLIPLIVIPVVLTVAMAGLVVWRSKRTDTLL

T3: Human calcitonin receptor (human, UniProt P30988)
T3 sequence: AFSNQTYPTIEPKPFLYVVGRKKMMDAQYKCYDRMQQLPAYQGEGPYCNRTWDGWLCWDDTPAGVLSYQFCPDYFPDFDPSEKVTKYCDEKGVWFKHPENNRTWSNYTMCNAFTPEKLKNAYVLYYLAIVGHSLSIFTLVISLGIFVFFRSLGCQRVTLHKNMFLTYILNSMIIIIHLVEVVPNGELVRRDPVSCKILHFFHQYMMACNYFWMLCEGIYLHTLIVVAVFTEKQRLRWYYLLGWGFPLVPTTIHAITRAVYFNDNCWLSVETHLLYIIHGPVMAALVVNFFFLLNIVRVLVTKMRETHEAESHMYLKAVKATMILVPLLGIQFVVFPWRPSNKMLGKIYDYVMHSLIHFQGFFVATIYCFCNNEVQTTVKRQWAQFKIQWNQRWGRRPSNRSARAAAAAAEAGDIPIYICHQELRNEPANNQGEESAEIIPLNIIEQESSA


Experiments:
[1] = in vivo; cited from earlier work
[2] = cited from earlier work
[3] = biological target: Human GLP-1 receptor (human) (UniProt P43220)
Human GIP receptor = biological target: T1, Human GIP receptor; experiment: cell-based or functional assay
Human GLP-1 receptor = Human GLP-1 receptor (human, UniProt P43220); experiment: cell-based or functional assay
[4] = biological target: T2, Human AMY3 receptor (CT/RAMP3); experiment: cell-based or functional assay
[5] = biological target: T3, Human calcitonin receptor; experiment: cell-based or functional assay
[6] = Blood glucose after single s.c. administration in non-fasted mice; assay type: in vivo; settings: 50 nmoles/Kg single s.c., mean±SEM
Procedure: (§1) Differences were considered statistically significant at p<0.05. Data analysis was carried out with GraphPad software (GraphPad Prism).

[7] = Acute food intake in lean rats after single s.c. administration; assay type: in vivo, Sprague Dawley male rats; settings: 50 nmoles/kg single s.c., mean +/- SEM
Procedure: (§2) Sprague Dawley male rats (5 weeks of age) were purchased from Charles River (Spain) and single housed for individual registration of food consumption. […] Rats were fed ad libitum a standard rodent chow diet (CHD) (A04, U8220G10R, SAFE).
(§3) For all experimental groups, food was replaced immediately after lights were turned off.
(§4) Food intake was measured at different time-intervals post-injection up to 72 h using a precision balance. Cumulative food intake was calculated for the indicated time-periods. Body weight was measured at the indicated time-periods. Mean accumulated food intake in each dose group was compared to vehicle and reported as a percentage of mean food intake in the vehicle group, which was defined as 100%.
(§5) All data shown are the mean ± standard error (SEM).

[8] = Body weight in lean rats after single s.c. administration; assay type: in vivo, Sprague Dawley male rats; settings: mean±SEM
Procedure: as §2, §3, §4, §5

[9] = Acute food intake in lean mice after single s.c. administration; assay type: in vivo, C57BL/6j male mice; settings: 50 nmoles/kg single s.c., time period not given, mean±SEM
Procedure: as §1

Chain of Exendin-4 (P26349 48-86 limits assumed): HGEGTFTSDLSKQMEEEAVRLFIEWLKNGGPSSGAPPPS

| EC50 (nM), cAMP cell-based agonist assay (Human GIP receptor) [nM] | EC50 (nM), cAMP cell-based agonist assay (Human GLP-1 receptor) [nM] | EC50 (nM), cAMP cell-based agonist assay [4] [nM] | EC50 (nM), cAMP cell-based agonist assay [5] [nM] | Molecule | further results |
| --- | --- | --- | --- | --- | --- |
| 20 | 43 | 1.6 | 0.11 | Peptide No. 21 (reading uncertain; also: K* n and R3 not given here, acetate salt) peptide: [dY]AEGTFTSDYSIQLDKIAQQAFVQWLLAGSGCNTATCVLGRLSQELHRLQTYPRTNTGK([γGlu-γGlu-C(:O)(CH2)nR3])NTY-NH2 |  |
| 4.6 | 8.23 | 1.03 | 0.1 | Peptide No. 19 (reading uncertain; also: K* n and R3 not given here, acetate salt) peptide: [dY]AEGTFTSDYSIQLDKIAQQAFVQWLLAGGPSCNTATCVLGRLSQELHRLQTYPRTNTGK([γGlu-γGlu-C(:O)(CH2)nR3])NTY-NH2 |  |
| 16 | 42 | 15 | 5.78 | Peptide No. 22 (reading uncertain; also: K* n and R3 not given here, acetate salt) peptide: [dY]AEGTFTSDYSIQLDKIAQQAFVQWLLAGSGCNTATCATQRLANFLVHSSNNFGPILPPTNVGK([γGlu-γGlu-C(:O)(CH2)nR3])NTY-NH2 |  |

Second part, the molecule before the results:

| Molecule | EC50 (nM), cAMP cell-based agonist assay (Human GIP receptor) [nM] | EC50 (nM), cAMP cell-based agonist assay (Human GLP-1 receptor) [nM] | EC50 (nM), cAMP cell-based agonist assay [4] [nM] | EC50 (nM), cAMP cell-based agonist assay [5] [nM] | further results |
| --- | --- | --- | --- | --- | --- |
| glucagon-like peptide-1 [GLP-1] |  |  |  |  | metabolic clearance rate of active GLP-1 [1]: 12 to 13 min |
| CC[C@H](C)[C@H](NC(=O)[C@H](CO)NC(=O)[C@H](Cc1ccc(O)cc1)NC(=O)[C@H](CC(=O)O)NC(=O)[C@H](CO)NC(=O)[C@@H](NC(=O)[C@H](Cc1ccccc1)NC(=O)[C@@H](NC(=O)CNC(=O)[C@H](CCC(=O)O)NC(=O)[C@H](C)NC(=O)[C@@H](N)Cc1ccc(O)cc1)[C@@H](C)O)[C@@H](C)CC)C(=O)N[C@@H](C)C(=O)N[C@@H](CCSC)C(=O)N[C@@H](CC(=O)O)C(=O)N[C@@H](CCCCN)C(=O)N[C@H](C(=O)N[C@@H](Cc1c[nH]cn1)C(=O)N[C@@H](CCC(N)=O)C(=O)N[C@@H](CCC(N)=O)C(=O)N[C@@H](CC(=O)O)C(=O)N[C@@H](Cc1ccccc1)C(=O)N[C@H](C(=O)N[C@@H](CC(N)=O)C(=O)N[C@@H](Cc1c[nH]c2ccccc12)C(=O)N[C@@H](CC(C)C)C(=O)N[C@@H](CC(C)C)C(=O)N[C@@H](C)C(=O)N[C@@H](CCC(N)=O)C(=O)N[C@@H](CCCCN)C(=O)NCC(=O)N[C@@H](CCCCN)C(=O)N[C@@H](CCCCN)C(=O)N[C@@H](CC(N)=O)C(=O)N[C@@H](CC(=O)O)C(=O)N[C@@H](Cc1c[nH]c2ccccc12)C(=O)N[C@@H](CCCCN)C(=O)N[C@@H](Cc1c[nH]cn1)C(=O)N[C@@H](CC(N)=O)C(=O)N[C@H](C(=O)N[C@H](C(=O)N[C@@H](CCC(N)=O)C(=O)O)[C@@H](C)O)[C@@H](C)CC)C(C)C)[C@@H](C)CC [GIP, glucose-dependent insulinotropic polypeptide] |  |  |  |  | half-life of intact GIP ([2]; diabetic subjects): ~5.2 min; half-life of intact GIP ([2]; healthy subjects): approximately 7.3 minutes |
| Exendin-4 (from UniProt P26349) (ligand) |  |  |  |  | EC50 (nM), cAMP cell-based agonist assay [3]: 0.007 nM |
| (d)YAEGTFTSDYSIALDKIAQQAFVQWLLAGGPSCNTATCVLGRLSQELHRLQTYPRTNTGK*-N-T-Y-NH2 (not fully specified (residue 60); also: acyl end R3 and chain length n (12-20) not fixed, K* indicates a linking group, e.g. Lys-γGlu-γGlu—C(═O)(CH2)nR3) [dY]AEGTFTSDYSIALDKIAQQAFVQWLLAGGPSCNTATCVLGRLSQELHRLQTYPRTNTGKNTY-NH2 |  |  |  |  | Blood glucose 30 min ([6]; 30 min after injection): 140.4 ± 8.41 mg/dL; Blood glucose 120 min ([6]; 120 min after injection): 138.4 ± 1.63 mg/dL; Blood glucose Time 0 ([6]; time 0 (baseline)): 159.6 ± 5.78 mg/dL; Cumulative Food Intake Reduction vs. Vehicle (%) 12 hr. ([7]; cumulative to 12 hr.): 21.8 +/- 2.62%; Cumulative Food Intake Reduction vs. Vehicle (%) 24 hr. ([7]; cumulative to 24 hr.): 31.8 +/- 2.10%; Cumulative Food Intake Reduction vs. Vehicle (%) 48 hr. ([7]; cumulative to 48 hr.): 32.3 +/- 1.66%; Cumulative Food Intake Reduction vs. Vehicle (%) 72 hr. ([7]; cumulative to 72 hr.): 28.7 +/- 1.69%; Food Intake Reduction by Intervals vs. Vehicle (%) 0-12 hr. ([7]; interval 0-12 hr.): 21.8 +/- 2.62%; Food Intake Reduction by Intervals vs. Vehicle (%) 12-24 hr. ([7]; interval 12-24 hr.): 89.1 +/- 3.69%; Food Intake Reduction by Intervals vs. Vehicle (%) 24-48 hr. ([7]; interval 24-48 hr.): 32.8 +/- 3.69%; Food Intake Reduction by Intervals vs. Vehicle (%) 48-72 hr. ([7]; interval 48-72 hr.): 19.4 +/- 2.31%; Body Weight Reduction (G) 24 h ([8]; 24 h): -9.0 ± 1.01 g; Body Weight Reduction (G) 48 h ([8]; 48 h): -13.0 ± 0.84 g; Body Weight Reduction (G) 72 h ([8]; 72 h): -14.8 ± 1.30 g; Cumulative Food Intake Reduction Relative to Vehicle (%) ([9]; 1st of 4 value columns): 20.5±0.86%; Cumulative Food Intake Reduction Relative to Vehicle (%) ([9]; 2nd of 4 value columns): 25.3±1.93%; Cumulative Food Intake Reduction Relative to Vehicle (%) ([9]; 3rd of 4 value columns): 12.2±4.03%; Cumulative Food Intake Reduction Relative to Vehicle (%) ([9]; 4th of 4 value columns): 2.6±5.68% |
| Peptide No. 17 (reading uncertain; also: K* n and R3 not given here, acetate salt) peptide: [dY]AEGTFTSDYSIALDKIAQQAFVQWLLAGGPSCNTATCVLGRLSQELHRLQTYPRTNTGK([γGlu-γGlu-C(:O)(CH2)nR3])NTY-NH2 | 0.81 | 5.7 | 1.3 | 0.1 |  |
| Peptide No. 10 (reading uncertain; also: K* acyl n and R3 not given here, acetate salt, printed as Y-Aib-E-G-T-F-T-S-D-Y-S-I-Aib-L-D-K-I-A-Q-K*-AFVQWLLAGGPSCNTATCATQRLANFLVHSSNNFGPILPPTNVGSNTY-NH2) peptide: Y[Aib]EGTFTSDYSI[Aib]LDKIAQK([γGlu-γGlu-C(:O)(CH2)nR3])AFVQWLLAGGPSCNTATCATQRLANFLVHSSNNFGPILPPTNVGSNTY-NH2 | 0.05 | 3.87 | 7 | 12.4 |  |
| Peptide No. 15 (reading uncertain; also: K* n and R3 not given here, acetate salt) peptide: Y[dA]EGTFTSDYSIALDKIAQQAFVQWLLAGGPSCNTATCVLGRLSQELHRLQTYPRTNTGK([γGlu-γGlu-C(:O)(CH2)nR3])NTY-NH2 | 0.13 | 5.2 | 1.1 | 0.071 |  |
